In patent US20080038775A1 (published 2008):

Legend:
[1] = biological target: T1, LRP5prop3,4LBD V5His (propellers 3 and 4 and ligand binding domain of LRP5, amino acids 642 to 1376 of … (UniProt O75197 642-1376)); assay: TR-FRET competition; untagged R&D Dkk1 titrated against myc-tagged Dkk1 binding to LRP5prop34LBD
T1 construct: range 642-1376; Secreted from HEK293T cells co-transfected with RAP; also called LRP5VHis prop3,4; not shown: V5 (and His) tag from the pcDNA3.1/V5 expression vector
T1 sequence (looked up): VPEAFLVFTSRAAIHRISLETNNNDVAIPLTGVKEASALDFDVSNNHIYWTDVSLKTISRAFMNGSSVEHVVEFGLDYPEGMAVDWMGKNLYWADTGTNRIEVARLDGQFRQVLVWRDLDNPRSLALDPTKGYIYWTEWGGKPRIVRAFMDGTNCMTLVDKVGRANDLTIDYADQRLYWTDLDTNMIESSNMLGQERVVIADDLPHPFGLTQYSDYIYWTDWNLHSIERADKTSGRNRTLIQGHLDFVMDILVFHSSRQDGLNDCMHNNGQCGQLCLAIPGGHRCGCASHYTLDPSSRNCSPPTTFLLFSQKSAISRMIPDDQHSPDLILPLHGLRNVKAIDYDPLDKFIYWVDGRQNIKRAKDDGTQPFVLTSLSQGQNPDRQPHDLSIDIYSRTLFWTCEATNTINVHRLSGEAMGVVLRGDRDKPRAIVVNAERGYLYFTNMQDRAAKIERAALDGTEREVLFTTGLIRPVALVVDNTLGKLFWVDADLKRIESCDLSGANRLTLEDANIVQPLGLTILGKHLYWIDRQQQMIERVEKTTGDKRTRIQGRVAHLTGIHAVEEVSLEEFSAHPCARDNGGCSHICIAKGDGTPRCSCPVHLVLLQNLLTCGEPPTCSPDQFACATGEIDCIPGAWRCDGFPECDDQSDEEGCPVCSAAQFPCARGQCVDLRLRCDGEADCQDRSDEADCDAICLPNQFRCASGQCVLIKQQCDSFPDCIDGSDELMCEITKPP
Method: (§1) The time resolved fluorescence resonance energy transfer (TR-FRET) platform was chosen to develop an assay for Dkk1-LRP5prop34LBD interaction because the TR-FRET assay is highly sensitive, easy to set up and capable of detecting weak interactions. For this assay, two labeled molecules are added to the system. If an interaction occurs, the labels are brought into close proximity and energy transfer occurs to release energy at specific wavelengths that can be detected. For detection of interaction between Dkk1 and LRP5prop34LBD, the Dkk1 (tagged with myc) is effectively labeled using a Cy5 labeled monoclonal anti-myc antibody. The LRP5prop34LBD (tagged with V5) is effectively labeled using a Europium labeled monoclonal anti-V5 antibody. Europium is excited at 340 nm and re-emits energy at 615 nm. Cy5 absorbs at 615 nm and emits energy at 665 nm which is detected. The measurement was conducted on a Wallac EnVision 2100 Multilabel Reader from PerkinElmer Life Science. […] The interaction between Dkk1 and LRP5prop3,4LBD is expressed as the ratio of fluorescence intensity at 665 nm over 615 nm, which represents the energy transfer from the europium to Cy5 dye. […]
Dkk1 without a myc tag was purchased from R&D Inc. and is a Dkk1 synthesized in a baculovirus/insect cell system. […] The data were analyzed with Grafit 5 (Erithacus Software).

[2] = biological target: LRP5 protein (form not named at the place) (UniProt O75197); assay: cell-based or functional assay
[3] = biological target: T1, LRP5prop3,4LBD V5His (propellers 3 and …); assay: TR-FRET (anti-V5-Eu / anti-myc-Cy5), apparent Kd, concentrations of Dkk1 and LRP5prop34LBD varied, 50 mM PIPES pH 6.5
Method: as §1, with “The LRP5prop34LBD (tagged with V5) is effectively labeled using a Europium labeled monoclonal anti-V5 antibody. Europium is excited at 340 nm and re-emits energy at 615 nm.” left out
Kdapp Determination. The observed Kdapp was determined by varying concentrations of Dkk1 and LRP5prop34LBD in the reaction mixture containing 50 mM PIPES (pH 6.5), 0.5 mM DTT, 0.01% Tween-20, 0.5 nM V5-mAb-Eu, and 15 nM ,myc-Ab-Cy5. […] Kd-value determined here is a Kdapp-value as the antibody concentration is limiting in the assay. […]

B1: Recombinant human Dkk1 from R&D Systems (Cat. No. 1096-DK/CF), baculovirus/insect cell derived (ligand, UniProt O94907 32-266, looked up)
chain: TLNSVLNSNAIKNLPPPLGGAAGHPGSAVSAAPGILYPGGNKYQTIDNYQPYPCAEDEECGTDEYCASPTRGGDAGVQICLACRKRRKRCMRHAMCCPGNYCKNGICVSSDQNHFRGEIEETITESFGNDHSTLDGYSRRTTLSSKMYHTKGQEGSVCLRSSDCASGLCCARHFWSKICKPVLKEGQVCTKHRRKGSHGLEIFQRCYCGEGLSCRIQKDHHQASNSSRLHTCQRH
modifications: 125I-labelled in the radioligand assay of Example 10 only
notes: Bought protein; no myc tag; also called R&D Dkk1; R&D Systems Dkk1
B1 gave an IC50 [1] of 1.42 nM.

B2: Dkk1mycHis (wild-type human Dkk1 with C-terminal c-myc and His6 tags, secreted by HEK293T cells; used purified or as conditioned media) (ligand)
chain: ATLNSVLNSNAIKNLPPPLGGAAGHPGSAVSAAPGILYPGGNKYQTIDNYQPYPCAEDEECGTDEYCASPTRGGDAGVQICLACRKRRKRCMRHAMCCPGNYCKNGICVSSDQNHFRGEIEETITESFGNDHSTLDGYSRRTTLSSKMYHTKGQEGSVCLRSSDCASGLCCARHFWSKICKPVLKEGQVCTKHRRKGSHGLEIFQRCYCGEGLSCRIQKDHHQASNSSRLHTCQRHSRGPFEQKLISEEDLNMHTGHHHHHH
modifications: N-linked glycosylation (mammalian pattern); 125I-labelled by the chloramine-T method only in the radioligand assay of Example 10
notes: Secreted protein; also called WT; wild-type Dkk1
B2 showed an activity in the TCF luciferase assay compared with baculovirus Dkk1 (FIG. 4) (% greater activity than R&D Systems Dkk1) [2] of 25 and a Kd [3] of 11.8 nM.
